# Laboratory results reported in publication PMC4635001, “Structural Characterisation of FabG from Yersinia pestis, a Key Component of Bacterial Fatty Acid Synthesis” (PLoS ONE, 2015).
# Molecular target: the molecule itself
# Assay: crystal structure
protein,measurement,value
"Yersinia pestis FabG (ketoacyl-acyl carrier protein reductase) (enzyme, also called YpFabG; YpFabG TMAO) MSFEGKIALVTGASRGIGRAIAELLVERGACVIGTATSEKGAEAISAYLGENGKGLMLNVVDPTSIDTVLATIRAEFGEVDILVNNAGITRDNLLMRMKDDEWQDIIDTNLTSVFRLSKAVMRAMMKKRFGRIITIGSVVGTMGNAGQVNYAAAKAGVIGFSKSLAREVASRGITVNVVAPGFIETDMTRTLTDDQRAGILAQVPANRLGDAKEIASAVAFLASDEASYISGETLHVNGGMYMI",stoichiometry N,4
